# In paper doi:10.1101/2022.02.25.482063:
# Biological target: motavizumab
# Test: SPR
substance,measurement,value
"RSV F glycoprotein S275H, on virions of recombinant RSV-A2 mKate2 (natural protein)",fold reduction of the on-rate (ka) against WT,> 6 fold
